Reference: patent US20030223964A1

Molecular target: FITC-labeled CD4 (UniProt P01730)
Test: size exclusion HPLC (Biosil 250) after incubation with FITC-labeled CD4; free CD4-FITC elutes at 2.67 minutes

| Substance | retention time of the complex on size exclusion HPLC [min] |
| --- | --- |
| US4 gp120, purified from CHO cell supernatant | 2.17 |
| oligomeric gp140 US4 (o-gp140 US4), purified from CHO cell supernatant | 1.9 |
